Data on two molecules can be found in PMC5312968, “Structure, kinetic characterization and subcellular localization of the two ribulose 5-phosphate epimerase isoenzymes from Trypanosoma cruzi” (PLoS ONE, 2017).

Values joined by “and” are separate entries in the source; they are usually repeats but may differ in a detail not shown here. Equal entries are not always repeated.

For experiment [1], the target named is recombinant ribulose-5-phosphate epimerase 2 from Trypanosoma cruzi CL Brener clone (TcRPE2) (Trypanosoma cruzi CL Brener clone). As to the kind of experiment: SEC-MALS; Superose 12 column with in-line multi-angle static and dynamic light scattering (SEC-FPLC-LS), room temperature, 50 mM Tris-HCl pH 7.6, 500 mM NaCl, 0.4 ml/min; mixture of oligomeric species of one protein.

A further experiment concerns the target T1, TcRPE1 (Trypanosoma cruzi, UniProt Q4DBL0).
T1 construct: gene Tc00.1047053510257.30; full-length ORF of 735 bp, pET-22b(+), C-terminal His6 tag kept, E. coli BL21 codon Plus (DE3), subunit 27 kDa, monomer to octamer mixture
T1 sequence (Q4DBL0 1-244): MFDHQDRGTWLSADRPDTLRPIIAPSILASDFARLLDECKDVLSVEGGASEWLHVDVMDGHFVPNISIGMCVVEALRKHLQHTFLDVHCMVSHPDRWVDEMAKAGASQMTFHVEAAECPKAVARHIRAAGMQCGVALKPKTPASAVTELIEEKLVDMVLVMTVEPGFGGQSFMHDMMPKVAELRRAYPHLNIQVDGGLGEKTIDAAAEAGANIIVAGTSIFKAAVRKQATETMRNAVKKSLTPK
The experiment is described as follows: coupled enzyme assay (transketolase), spectrophotometric. It counts as biochemical. The following applies: pH 7.25, 30°C, triethanolamine-HCl, 0.02–2 mM substrate; biphasic kinetics, authors give no constants.

Consider “recombinant ribulose-5-phosphate epimerase 2 from Trypanosoma cruzi CL Brener clone (TcRPE2) (enzyme)”, for which the stoichiometry N (in general, a count of units in the complex or per binding partner) in experiment [1] is 2 and 4.

Consider `O=C(CO)[C@H](O)[C@H](O)COP(=O)(O)O` [D-ribulose-5-phosphate], for which the “coupled enzyme assay (transketolase), spectrophotometric” value on TcRPE1 is listed as “TcRPE1 showed a very complex kinetic pattern to increasing concentrations of Ru5P”.
